Reference: US11384119B2, “Compositions and methods for inhibiting CD279 interactions” (priority 2015, dated 2022)

Legend:
[1] = system: tumour cell line LL/2; experiment: In vivo LL/2 tumour model in C57Bl/6 mice; settings: 200 mg/kg IP for 7 days
Description: More particularly, mice strain C57Bl/6 (male, 4-weeks, initial body weight˜20-22 g) were inoculated with tumour cell line LL/2, at S.C. 10^5 per mouse. After 14 days post-implantation, the mice were treated with D-TW or D-TW-Scrambled for 7 days (at 200 mg/kg), via intraperitoneal (IP) injection.

[2] = target: T1, PD-1/PD-L1 interaction (Homo sapiens, UniProt Q9NZQ7); experiment: IL-2 production by activated Jurkat T cells co-cultured with PD-L1-expressed U87 tumor cells (IL-2 ELISA); assay type: cell-based; design: endogenous in cells; host or cells: U87 tumor cells (PD-L1); Jurkat T cells (PD-1); settings: for IL-2 concentration: different peptide concentrations, 37° C. for 48 hours, FIGS. 3A-3C; for blocking of PD-1/PD-L1 interaction (summary of the foregoing assay results): summary of FIGS. 1-3, the combination is compared with a single test peptide treatment
Description: In this Example, 5×10^4 Jurkat T cells were activated with […] of PHA and 50 ng/ml of PMA and co-cultured with 3×10^5 PD-L1-expressed U87 tumor cells mixed with different concentrations of WT (FIG. 3A), TF (FIG. 3B), or combined WT and TF (FIG. 3C) peptide at 37° C. for 48 hours. Cell culture supernatants were harvested and IL-2 production from the Jurkat T cells was assessed by IL-2 ELISA. The numbers shown above each bar in FIGS. 3A-3C represent IL-2 concentrations. […] Moreover, as shown in FIGS. 3A-3C, as the concentrations of the test peptides were increased, an increase in IL-2 concentration was observed.
Target sequence in this assay (Q9NZQ7 19-290): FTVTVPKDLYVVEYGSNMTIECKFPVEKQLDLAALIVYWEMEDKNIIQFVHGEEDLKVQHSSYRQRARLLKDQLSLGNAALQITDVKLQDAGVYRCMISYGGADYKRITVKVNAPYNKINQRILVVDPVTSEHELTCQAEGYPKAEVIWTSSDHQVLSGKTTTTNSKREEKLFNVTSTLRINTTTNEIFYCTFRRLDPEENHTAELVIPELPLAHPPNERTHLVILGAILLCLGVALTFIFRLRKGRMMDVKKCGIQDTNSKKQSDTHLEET

[3] = target: T2, human PD-L1 (PD-1/PD-L1 interaction) (Homo sapiens, UniProt Q9NZQ7); experiment: Competition ELISA: peptide blocking of recombinant human PD-1 Fc binding to plate-coated human PD-L1 Fc; settings: peptide 0.008 μg/ml to 10 μg/ml, human PD-1 Fc 10 ng/ml; FIG. 1
T2 construct: Fc
Description: The binding of the WT or TF peptide to human PD-L1 was tested via competition ELISA. Varying concentrations of each peptide (0.008 μg/ml to 10 μg/ml) were mixed with a fixed concentration of recombinant human PD-1 Fc (10 ng/ml) and bound to a human PD-L1 Fc coated 96-well Immuno Maxisorp flat bottom plate. Binding was detected via a biotinylated anti-PD-1 antibody, streptavidin-horseradish peroxidase (HRP), and 3,3′,5,5′-Tetramethylbenzidine (TMB) substrate. Absorbance measurements were collected at 450 nm via a plate reader. The absorbance readings were plotted against the test peptide concentration.
More particularly, in this Example and referring to FIGS. 5A and 5B, WT represents SEQ ID NO:1; TF represents SEQ ID NO:2; ET represents SEQ ID NO:25; YT represents SEQ ID NO:28; and TW represents the reverse sequence of WT with D-amino acids, SEQ ID NO:34 (also referred to herein as “D-TW”). Different combination of such PD-L1 blocking peptides (3 and 10 μM) were mixed with recombinant human PD-1 Fc and bound to a human PD-L1 Fc coated 96-well Immuno Maxisorp flat bottom plate. Binding was detected via a biotinylated anti-PD-1 antibody, streptavidin-horseradish peroxidase (HRP), and 3,3′,5,5′-Tetramethylbenzidine (TMB) substrate. Absorbance measurements were collected at 450 nm via a plate reader. […]

[4] = target: T1, PD-1/PD-L1 interaction; experiment: IL-2 production by PHA/PMA-activated Jurkat T cells co-cultured with recombinant human PD-L1 Fc (IL-2 ELISA); assay type: cell-based; design: Fc; host or cells: Jurkat T cells (PD-1 side); settings: 1-10 μg/ml peptide, PD-L1 Fc 8 μg/ml, 37° C. for 48 hours; FIG. 2
Description: 5×10^4 Jurkat T cells were activated with 1 μg/ml of phytohemagglutinin (PHA) and 50 ng/ml of phorbol 12-myristate 13-acetate (PMA) and co-cultured with recombinant human PD-L1 Fc (8 μg/ml) plus 1-10 μg/ml of WT (FIG. 2A), 1-10 μg/ml of TF (FIG. 2B), or 1-10 μg/ml of combined WT and TF (FIG. 2C) peptide at 37° C. for 48 hours. Cell culture supernatant was harvested and interleukin-2 (IL-2) production from Jurkat T cells was assessed by IL-2 ELISA. The numbers shown above each bar in FIG. 2 represent IL-2 concentrations.
Target sequence in this assay (Q9NZQ7 19-238 limits assumed): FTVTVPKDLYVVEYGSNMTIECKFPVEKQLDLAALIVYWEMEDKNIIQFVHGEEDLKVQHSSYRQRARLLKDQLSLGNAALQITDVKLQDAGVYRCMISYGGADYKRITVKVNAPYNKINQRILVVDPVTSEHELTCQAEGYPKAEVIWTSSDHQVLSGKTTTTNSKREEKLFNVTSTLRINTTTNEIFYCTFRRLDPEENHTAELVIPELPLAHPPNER

T2 sequence (Q9NZQ7 19-238 limits assumed): as above

Molecule: CSCC[C@@H](NC(=O)[C@@H](CO)NC(=O)[C@H]1CCCN1C(=O)[C@@H](CO)NC(=O)[C@@H](CC(N)=O)NC(=O)[C@@H](CCC(N)=O)NC(=O)[C@H](N)[C@H](C)O)C(=O)N[C@H](CCCNC(=N)N)C(=O)N[C@H](Cc1ccc(O)cc1)C(=O)N[C@H](Cc1c[nH]c2ccccc12)C(=O)O [D-TW, TQNSPSMRYW]
- toxicity to mice [1]: generally non-toxic

Molecule: TAHPSPSPRSAGQF [TF]
- IL-2 concentration [2]: yielded an increase in IL-2 concentration
- blocking of PD-1/PD-L1 interaction (summary of the foregoing assay results) [2]: able to block PD-1/PD-L1 interaction
- percent (%) inhibition of PD-1/PD-L1 interaction [3]: the percent (%) inhibition increased
- IL-2 concentration [4]: yielded an increase in IL-2 concentration

Molecule: WYRMSPSNQT [WT]
- IL-2 concentration [2]: yielded an increase in IL-2 concentration
- blocking of PD-1/PD-L1 interaction (summary of the foregoing assay results) [2]: able to block PD-1/PD-L1 interaction
- percent (%) inhibition of PD-1/PD-L1 interaction [3]: the percent (%) inhibition increased
